Tests used:
Assay in all cases: holdup assay
Design in all cases: key: below the threshold = too weak to quantify, mostly under pKd 3.1 to 4
Settings in all cases: plain residues with an end cap or a label only (N-terminal biotin on a linker: ado-ado)
[1] = target: T1, GRIP1_4, Q9Y3R0
T1 sequence (Q9Y3R0 467-571, limits assumed, looked up): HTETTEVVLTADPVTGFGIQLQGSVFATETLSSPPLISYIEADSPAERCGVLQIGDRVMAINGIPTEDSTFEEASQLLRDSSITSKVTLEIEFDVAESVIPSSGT

[2] = target: T2, LNX2_2, Q8N448
T2 sequence (Q8N448 334-432, limits assumed, looked up): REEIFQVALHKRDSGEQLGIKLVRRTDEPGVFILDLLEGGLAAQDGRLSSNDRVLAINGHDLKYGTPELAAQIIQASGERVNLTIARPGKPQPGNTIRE

[3] = target: T3, PDZD7_3, Q9H5P4
T3 sequence (Q9H5P4 857-944, limits assumed, looked up): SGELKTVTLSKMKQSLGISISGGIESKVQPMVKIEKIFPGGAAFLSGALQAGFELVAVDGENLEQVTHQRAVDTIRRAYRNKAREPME

[4] = target: Inadl_3, Q8NI35
Chain of Inadl_3, Q8NI35 (Q8NI35 359-469): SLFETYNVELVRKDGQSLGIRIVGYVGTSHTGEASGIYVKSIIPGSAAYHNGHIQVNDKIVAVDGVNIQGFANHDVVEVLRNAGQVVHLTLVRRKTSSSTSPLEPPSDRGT

[5] = target: Inadl_1, Q8NI35
Chain of Inadl_1, Q8NI35 (Q8NI35 113-229): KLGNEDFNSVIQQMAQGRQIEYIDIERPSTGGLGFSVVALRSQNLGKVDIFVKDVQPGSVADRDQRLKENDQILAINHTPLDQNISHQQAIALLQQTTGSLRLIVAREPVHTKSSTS

[6] = target: PDLIM1, O00151
Chain of PDLIM1, O00151 (O00151 1-87): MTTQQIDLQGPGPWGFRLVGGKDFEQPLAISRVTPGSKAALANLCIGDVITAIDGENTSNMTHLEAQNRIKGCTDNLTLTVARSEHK

[7] = target: Inadl_4, Q8NI35
Chain of Inadl_4, Q8NI35 (Q8NI35 547-651): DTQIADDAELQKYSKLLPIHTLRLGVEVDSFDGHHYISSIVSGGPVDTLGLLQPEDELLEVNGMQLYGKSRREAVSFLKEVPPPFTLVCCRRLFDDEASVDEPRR

[8] = target: T4, MPDZ_12, O75970
T4 sequence (O75970 1857-1958, limits assumed, looked up): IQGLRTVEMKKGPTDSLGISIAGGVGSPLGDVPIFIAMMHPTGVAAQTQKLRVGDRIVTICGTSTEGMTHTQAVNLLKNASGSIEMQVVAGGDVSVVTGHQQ

[9] = target: DLG2_2, Q15700
[10] = target: GRIP2_7, Q9C0E4
Chain of GRIP2_7, Q9C0E4 (Q9C0E4 934-1023): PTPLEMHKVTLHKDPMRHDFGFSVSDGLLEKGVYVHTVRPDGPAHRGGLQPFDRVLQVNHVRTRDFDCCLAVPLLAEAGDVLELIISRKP

[11] = target: LNX1_2, Q8TBB1
Chain of LNX1_2, Q8TBB1 (Q8TBB1 371-470): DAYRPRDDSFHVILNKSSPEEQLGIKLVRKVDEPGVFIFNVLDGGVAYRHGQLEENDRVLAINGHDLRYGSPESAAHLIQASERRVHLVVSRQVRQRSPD

[12] = target: ARHGEF12, Q9NZN5-2
Chain of ARHGEF12, Q9NZN5-2 (Q9NZN5 other isoform, or with tags, fused parts or gaps): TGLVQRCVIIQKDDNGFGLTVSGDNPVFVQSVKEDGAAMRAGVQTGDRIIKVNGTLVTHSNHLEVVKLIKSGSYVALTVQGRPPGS

[13] = target: T5, SNTA1, Q13424
T5 sequence (Q13424 82-180, limits assumed, looked up): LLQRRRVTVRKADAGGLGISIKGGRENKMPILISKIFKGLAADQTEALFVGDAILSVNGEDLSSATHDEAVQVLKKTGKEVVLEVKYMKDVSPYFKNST

[14] = target: SCRIB_1, Q14160
Chain of SCRIB_1, Q14160 (Q14160 718-814): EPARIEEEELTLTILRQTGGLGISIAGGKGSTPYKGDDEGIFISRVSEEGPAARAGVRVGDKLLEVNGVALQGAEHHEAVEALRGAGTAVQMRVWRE

[15] = target: DLG2_3, Q15700
[16] = target: GIPC2, Q8TF65
Chain of GIPC2, Q8TF65 (Q8TF65 112-203): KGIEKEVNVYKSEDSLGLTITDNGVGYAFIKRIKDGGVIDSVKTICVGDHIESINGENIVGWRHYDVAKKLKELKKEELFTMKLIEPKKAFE

[17] = target: GOPC, Q9HD26
[18] = target: T6, APBA2_1, Q99767
T6 sequence (Q99767 563-664, limits assumed, looked up): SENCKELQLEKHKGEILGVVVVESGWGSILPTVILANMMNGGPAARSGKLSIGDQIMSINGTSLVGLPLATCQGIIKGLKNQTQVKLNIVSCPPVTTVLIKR

[19] = target: MAST2, Q6P0Q8
Chain of MAST2, Q6P0Q8 (Q6P0Q8 1099-1202): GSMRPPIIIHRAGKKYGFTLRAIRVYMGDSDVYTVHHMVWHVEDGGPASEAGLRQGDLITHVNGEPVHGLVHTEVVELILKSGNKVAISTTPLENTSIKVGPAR

[20] = target: PICK1, Q9NRD5
Chain of PICK1, Q9NRD5 (Q9NRD5 17-115): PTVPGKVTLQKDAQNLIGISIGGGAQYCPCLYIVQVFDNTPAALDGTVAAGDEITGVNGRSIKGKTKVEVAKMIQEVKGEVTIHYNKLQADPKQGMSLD

[21] = target: T7, GRIP1_2, Q9Y3R0
T7 sequence (Q9Y3R0 145-248, limits assumed, looked up): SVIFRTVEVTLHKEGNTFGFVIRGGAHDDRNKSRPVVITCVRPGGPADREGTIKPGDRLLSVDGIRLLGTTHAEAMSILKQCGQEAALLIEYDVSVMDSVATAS

[22] = target: HTRA2, O43464
Chain of HTRA2, O43464 (O43464 355-458): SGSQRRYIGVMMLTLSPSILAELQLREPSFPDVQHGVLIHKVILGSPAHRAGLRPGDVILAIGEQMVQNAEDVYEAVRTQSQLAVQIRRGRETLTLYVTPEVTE

[23] = target: T8, GRIP1_3, Q9Y3R0
T8 sequence (Q9Y3R0 247-346, limits assumed, looked up): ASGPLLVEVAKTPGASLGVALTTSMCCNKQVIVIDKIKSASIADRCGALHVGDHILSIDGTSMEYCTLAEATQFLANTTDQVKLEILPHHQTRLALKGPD

[24] = target: T9, SIPA1L2, Q9P2F8
T9 sequence (Q9P2F8 945-1036, limits assumed, looked up): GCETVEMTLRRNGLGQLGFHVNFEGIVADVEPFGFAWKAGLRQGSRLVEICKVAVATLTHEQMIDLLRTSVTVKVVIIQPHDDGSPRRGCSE

[25] = target: T10, ARHGEF11, O15085
T10 sequence (O15085 42-136, limits assumed, looked up): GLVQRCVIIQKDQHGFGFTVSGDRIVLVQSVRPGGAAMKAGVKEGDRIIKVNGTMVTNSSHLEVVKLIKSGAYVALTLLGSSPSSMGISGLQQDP

[26] = target: T11, PTPN13_1, Q12923
T11 sequence (Q12923 1088-1188, limits assumed, looked up): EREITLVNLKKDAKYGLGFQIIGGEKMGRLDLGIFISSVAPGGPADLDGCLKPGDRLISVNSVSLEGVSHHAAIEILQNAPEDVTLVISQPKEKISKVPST

[27] = target: LDB3, O75112
Chain of LDB3, O75112 (O75112 1-94): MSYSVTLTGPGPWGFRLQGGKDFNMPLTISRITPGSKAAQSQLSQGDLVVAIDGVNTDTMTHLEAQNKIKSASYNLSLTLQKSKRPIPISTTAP

Row | Binder | pKd [1] | pKd [2] | pKd [3] | pKd [4] | pKd [5] | pKd [6] | pKd [7] | pKd [8] | pKd [9] | pKd [10] | pKd [11] | pKd [12] | pKd [13] | pKd [14] | pKd [15] | pKd [16] | pKd [17] | pKd [18] | pKd [19] | pKd [20] | also measured
1 | NVYGIESVKI [GRIA2, P42262] | below the threshold | 3.85 | below the threshold | below the threshold | below the threshold | below the threshold | below the threshold | 3.61 | 3.5 | below the threshold | below the threshold | 3.59 | below the threshold | below the threshold | 3.81 | below the threshold | below the threshold | below the threshold | 4.35 | below the threshold | pKd [21]: below the threshold; pKd [22]: below the threshold; pKd [23]: below the threshold; pKd [24]: below the threshold; pKd [25]: 3.58; pKd [26]: below the threshold; pKd [27]: below the threshold
2 | PSHPRLQTHV [KIRREL2, Q6UWL6] | below the threshold | 3.5 | 4.61 | below the threshold | below the threshold | below the threshold | below the threshold | below the threshold | 4.28 | below the threshold | below the threshold | 4.26 | below the threshold | 3.88 | 4.26 | below the threshold | below the threshold | below the threshold | 5.5 | below the threshold | pKd [21]: below the threshold; pKd [22]: below the threshold; pKd [23]: below the threshold; pKd [24]: below the threshold; pKd [25]: 4.06; pKd [26]: below the threshold; pKd [27]: below the threshold

Continued, in another order:

Row | pKd [1] | pKd [2] | pKd [3] | pKd [4] | pKd [5] | pKd [6] | pKd [7] | pKd [8] | pKd [9] | pKd [10] | pKd [11] | pKd [12] | pKd [13] | pKd [14] | pKd [15] | pKd [16] | pKd [17] | pKd [18] | pKd [19] | pKd [20] | Binder | also measured
3 | 3.62 | below the threshold | 4.92 | below the threshold | below the threshold | 3.48 | below the threshold | below the threshold | 3.88 | below the threshold | below the threshold | 5.58 | 3.94 | 4.94 | 3.63 | below the threshold | 4.5 | below the threshold | 5.88 | below the threshold | GIKKITSTAL [RPS6KA3, P51812] | pKd [21]: 3.5; pKd [22]: 3.55; pKd [23]: below the threshold; pKd [24]: below the threshold; pKd [25]: 5.01; pKd [26]: below the threshold; pKd [27]: below the threshold
4 | below the threshold | below the threshold | below the threshold | below the threshold | below the threshold | below the threshold | below the threshold | below the threshold | below the threshold | below the threshold | below the threshold | below the threshold | below the threshold | below the threshold | 3.54 | below the threshold | below the threshold | below the threshold | below the threshold | 4.06 | NNNVVKVDSV [MTNR1A, P48039] | pKd [21]: below the threshold; pKd [22]: below the threshold; pKd [23]: below the threshold; pKd [24]: below the threshold; pKd [25]: below the threshold; pKd [26]: below the threshold; pKd [27]: below the threshold
